{
  "source": "paper PMC6557989",
  "about": "(2019)",
  "binders": {"B1": {"name": "Protein H (natural protein)", "chain": "EGAKIDWQEEYKKLDEDNAKLVEVVETTSLENEKLKSENEENKKNLDKLSKENQGKLEKLELDYLKKLDHEHKEHQKEQQEQEERQKNQEQLERKYQREVEKRYQEQLQKQQQLETEKQISEASRKSLSRDLEASRAAKKDLEAEHQKLEAEHQKLKEDKQISDASRQGLSRDLEASRAAKKELEANHQKLEAEHQKLKEDKQISDASRQGLSRDLEASRAAKKELEANHQKLEAEAKALKEQLAKQAEELAKLRAGKASDSQTPDTKPGNKAVPGKGQAPQAGTKPNQNKAPMKETKRQLPST", "modifications": "^125I-labelled in the plate binding assay; Alexa-488 succinimidyl ester-labelled in thermophoresis; unlabelled elsewhere"}},
  "key": {"[1]": {"target": "T1, C4b-binding protein (C4BP), human, purified from plasma (human, UniProt P04003 49-597; P20851 18-252, ^125I-labelled in the binding assay on bacteria)", "T1 chain 1": "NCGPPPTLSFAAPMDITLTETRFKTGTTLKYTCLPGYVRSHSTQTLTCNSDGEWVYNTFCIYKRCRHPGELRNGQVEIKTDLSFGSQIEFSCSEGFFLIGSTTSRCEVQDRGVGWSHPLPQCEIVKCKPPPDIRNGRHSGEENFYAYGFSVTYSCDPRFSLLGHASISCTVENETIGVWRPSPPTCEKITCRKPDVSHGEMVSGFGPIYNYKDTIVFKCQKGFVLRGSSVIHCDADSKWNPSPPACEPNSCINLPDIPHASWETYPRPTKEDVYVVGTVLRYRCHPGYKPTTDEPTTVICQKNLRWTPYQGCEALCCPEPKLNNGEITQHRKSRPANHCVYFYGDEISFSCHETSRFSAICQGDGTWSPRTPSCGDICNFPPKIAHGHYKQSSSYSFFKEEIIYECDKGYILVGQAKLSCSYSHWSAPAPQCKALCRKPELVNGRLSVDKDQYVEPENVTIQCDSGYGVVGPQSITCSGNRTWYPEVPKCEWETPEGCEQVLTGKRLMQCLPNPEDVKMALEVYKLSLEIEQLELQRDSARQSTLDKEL", "T1 chain 2": "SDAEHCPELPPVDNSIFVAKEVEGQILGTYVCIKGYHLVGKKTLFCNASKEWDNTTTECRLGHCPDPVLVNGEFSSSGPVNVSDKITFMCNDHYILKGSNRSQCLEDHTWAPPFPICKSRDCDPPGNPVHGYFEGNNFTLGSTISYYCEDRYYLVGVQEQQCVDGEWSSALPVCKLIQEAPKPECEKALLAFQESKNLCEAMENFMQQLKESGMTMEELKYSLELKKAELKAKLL", "experiment": "SEC; n = 26 binding sites per C4BP"}, "[2]": {"target": "pooled human IgG (IVIG; Kiovig) (human)", "experiment": "SEC; n = 1.1 binding sites per Protein H"}},
  "data": [
    {"binder": "B1", "values": [
      {"measurement": "Kd", "setting": "[1]", "value": 1300, "unit": "nM"},
      {"measurement": "Kd", "setting": "[2]", "value": 78, "unit": "nM"}
    ]}
  ]
}
